Experimental data reported in the MegaScale stability set (Tsuboyama et al. 2023).

B1: r4_43_TrROS_Hall (parent)
chain: DLVTIKVPLENLEEIKKAAEKAGFKIVSISYDKENKEVTIVIEKKK

Variants of: B1
Assay: folding stability dG (cDNA display proteolysis); higher = more stable
Details: PBS, room temperature

Variant | folding stability dG [kcal/mol]
DLVTIKVPLENLEEIKKAAEKAGFKIVSISYDKENKEGTIVIEKKK [V38G] | 3.18
DLVTIKVPLENLEEIKKAAEKAGFKIVSISYDKENKEVTIVIQKKK [E43Q] | 3.64
DLVTIKVPLENLEEIKKAAEKAGFKIVSISYDKENKEVTIVIGKKK [E43G] | 3.26
DLVTIKVPLENLEEIKKAAEKAGFKIVSISYDKENKEVTIVINKKK [E43N] | 3.78
DLVTIKVPLENLEEIKKAAEKAGFKIVSISYDKENKEVTIVIPKKK [E43P] | 2.34
DLVTIKVPLENLEEIKKAAEKAGFKIVSISYDKENKEVTIVITKKK [E43T] | 3.92
DLVTIKVPLENTEEIKKAAEKAGFKIVSISYDKENKEVTIVIEKKK [L12T] | 3.23
DLVTIKVPLENLEEIKKAAELAGFKIVSISYDKENKEVTIVIEKKK [K21L] | 3.57
DLVTIKVPLENLEEIKKAAEVAGFKIVSISYDKENKEVTIVIEKKK [K21V] | 3.93
DLVTIKVPLENLEEIKKAAERAGFKIVSISYDKENKEVTIVIEKKK [K21R] | 4.07
DPVTIKVPLENLEEIKKAAEKAGFKIVSISYDKENKEVTIVIEKKK [L2P] | 3.23
DWVTIKVPLENLEEIKKAAEKAGFKIVSISYDKENKEVTIVIEKKK [L2W] | 3.78
DAVTIKVPLENLEEIKKAAEKAGFKIVSISYDKENKEVTIVIEKKK [L2A] | 3.4
DNVTIKVPLENLEEIKKAAEKAGFKIVSISYDKENKEVTIVIEKKK [L2N] | 3.23
QLVTIKVPLENLEEIKKAAEKAGFKIVSISYDKENKEVTIVIEKKK [D1Q] | 3.82
WLVTIKVPLENLEEIKKAAEKAGFKIVSISYDKENKEVTIVIEKKK [D1W] | 4.07
DLVTGKVPLENLEEIKKAAEKAGFKIVSISYDKENKEVTIVIEKKK [I5G] | 1.98
DLVTMKVPLENLEEIKKAAEKAGFKIVSISYDKENKEVTIVIEKKK [I5M] | 3.79
DLVTIKVPLENLEEIKKAAEKAGFKIVSISYDKENEEVTIVIEKKK [K36E] | 3.22

Variant | folding stability dG [kcal/mol]
DLVTIKVPLENLEEIKKAAEKAGFKIVSISYDKENDEVTIVIEKKK [K36D] | 3.28
DLVTIKVPLENLEEIKKAAEKAGFKISSISYDKENKEVTIVIEKKK [V27S] | 3.35
DLVTIKVNLENLEEIKKAAEKAGFKIVSISYDKENKEVTIVIEKKK [P8N] | 3.58
DLVTIKVPLENLEEIKKVAEKAGFKIVSISYDKENKEVTIVIEKKK [A18V] | 3.73
DLVTIKVPLENLEEIKKEAEKAGFKIVSISYDKENKEVTIVIEKKK [A18E] | 3.65
DLVTIKVPLENLEEIKKAAEKAGFKIVSISYDKENKEVTIVYEKKK [I42Y] | 4.47
DLVTIKVPLENLEEIKKAAEKAGFKIVSISYDKENKEVTIVHEKKK [I42H] | 2.83
DLVTIKVPLENLEEIKKAAEKAGFKIVSISYDKENKEVTIVNEKKK [I42N] | 0.933
DLVMIKVPLENLEEIKKAAEKAGFKIVSISYDKENKEVTIVIEKKK [T4M] | 3.65
DLVPIKVPLENLEEIKKAAEKAGFKIVSISYDKENKEVTIVIEKKK [T4P] | 3.02
DLVSIKVPLENLEEIKKAAEKAGFKIVSISYDKENKEVTIVIEKKK [T4S] | 3.78
DLVTIKVPLENLEQIKKAAEKAGFKIVSISYDKENKEVTIVIEKKK [E14Q] | 3.56
DLVTIWVPLENLEEIKKAAEKAGFKIVSISYDKENKEVTIVIEKKK [K6W] | 3.39
DLVTILVPLENLEEIKKAAEKAGFKIVSISYDKENKEVTIVIEKKK [K6L] | 3.31
DLVTIPVPLENLEEIKKAAEKAGFKIVSISYDKENKEVTIVIEKKK [K6P] | 2.42
DLATIKVPLENLEEIKKAAEKAGFKIVSISYDKENKEVTIVIEKKK [V3A] | 3.33
DLCTIKVPLENLEEIKKAAEKAGFKIVSISYDKENKEVTIVIEKKK [V3C] | 3.72
DLVTIKVPLECLEEIKKAAEKAGFKIVSISYDKENKEVTIVIEKKK [N11C] | 3
DLVTIKVPLEELEEIKKAAEKAGFKIVSISYDKENKEVTIVIEKKK [N11E] | 3.27

Variant | folding stability dG [kcal/mol]
DLVTIKVPLENLEEIKKAAEKAGFKIVSISYDKENKEVTIHIEKKK [V41H] | 3.26
DLVTIKVPLENLEEIKKAAEKAGFKIVSISYDKENKEVTIEIEKKK [V41E] | 3.48
DLVTIKVPLENLEEIKKAAEKAGFKIVSISYDKENKEVTIDIEKKK [V41D] | 2.77
DLVTIKVPLENLEEIKIAAEKAGFKIVSISYDKENKEVTIVIEKKK [K17I] | 3.8
DLVTIKVPLENLEEIKCAAEKAGFKIVSISYDKENKEVTIVIEKKK [K17C] | 3.75
DLVTIKVPLENLEEIKGAAEKAGFKIVSISYDKENKEVTIVIEKKK [K17G] | 3.73
DLVTIKVPLENLEEIKMAAEKAGFKIVSISYDKENKEVTIVIEKKK [K17M] | 3.82
DLVTIKVPLENLEEIKTAAEKAGFKIVSISYDKENKEVTIVIEKKK [K17T] | 3.65
DLVTIKVPLENLEEIKKAAEKAGFKIVSISYDKENKRVTIVIEKKK [E37R] | 3.53
DLVTIKVPAENLEEIKKAAEKAGFKIVSISYDKENKEVTIVIEKKK [L9A] | 3.66
DLVTIKVPNENLEEIKKAAEKAGFKIVSISYDKENKEVTIVIEKKK [L9N] | 3.58
DLVTIKVPEENLEEIKKAAEKAGFKIVSISYDKENKEVTIVIEKKK [L9E] | 3.46
DLVTIKVPTENLEEIKKAAEKAGFKIVSISYDKENKEVTIVIEKKK [L9T] | 3.46
DLVTIKVPLENLEEIKKAAEKTGFKIVSISYDKENKEVTIVIEKKK [A22T] | 3.33
DLVTIKVPLENLEEIKKAAEKNGFKIVSISYDKENKEVTIVIEKKK [A22N] | 3.54
DLVTIKVPLENLEEIKKAAEKKGFKIVSISYDKENKEVTIVIEKKK [A22K] | 3.58
DLVTIKVPLENLEEIKKAAEKDGFKIVSISYDKENKEVTIVIEKKK [A22D] | 3.13
DLVTIKVPLENLEEIKKAAEKGGFKIVSISYDKENKEVTIVIEKKK [A22G] | 3.52
